The supplement of paper PMC10567573

B1: STK38L (parent)
chain: RQLAYSTVGTPDYIAPEVFMQTGY

Variants of: B1
Assay: protein stability index of a GFP-peptide fusion (GPS, HEK-293T) (PSI 1-6); higher = more stable
Conditions: c terminus: a fixed tail appended
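Note: lentivirally expressed fusions sorted by FACS into six bins by GFP to DsRed ratio, PSI derived from sequencing read proportions per bin multiplied by bin number.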

Protein stability index, by site and new letter:
Y5: G 3.03; N 3.26; K 2.58; H 3.07; V 2.36; C 2.38; W 2.13; S 2.93; A 3.06; F 2.44; T 2.51; I 2.83; M 2.95; Q 3.43; R 2.81; E 3.13; D 3.59; L 2.84; P 3.42
A15: H 2.1; M 2.19; Q 3.4; S 2.78; K 2.46; Y 1.68; F 1.98; T 2.4; I 1.43; D 2.93; C 2.57; P 3.29; L 2.3; G 3.12; V 2.28; E 3.15; W 1.58; N 2.21; R 2.27
E17: Q 2.22; F 1.9; T 1.98; D 2.79; C 1.8; I 2.17; K 2.08; N 1.97; H 2.22; L 1.76; S 2.21; G 2.39; W 1.44; V 1.83; A 2.08; R 2.71; M 1.68; P 2.12; Y 1.78
P11: V 1.89; K 2.59; S 2.63; N 2.78; A 2.64; F 1.85; G 3; D 2.36; T 2.44; I 2; M 2.18; Y 2.57; W 2.29; L 2.2; H 2.58; C 2.57; Q 2.49; R 1.8; E 3.13
S6: Y 1.77; E 3.3; M 1.79; H 2.63; T 2.21; F 1.65; K 2.43; G 2.32; Q 2.25; L 2.08; P 2.44; N 2.46; R 2.79; I 1.78; V 1.45; C 1.84; D 2.55; W 2.5; A 1.95
V18: N 2.97; P 2.31; D 3.57; C 2.58; W 1.92; A 2.46; M 2.29; G 3.16; R 2.66; L 1.8; S 3.06; Q 3.1; T 2.73; Y 3.3; E 3.62; I 2.09; K 2.25; F 2.28; H 2.51
F19: T 3.61; C 3.08; S 2.78; G 3.53; P 3.47; Q 3.11; Y 2.61; L 2.92; K 3.12; A 3.68; R 3.81; V 2.71; I 2.51; H 2.76; N 3.22; E 3.38; M 2.82; D 4.07
A4: W 1.64; Y 2.17; V 2.02
T7: I 2.04; W 1.79; K 2.41; S 2.11; D 2.26; R 2.52; Y 2.07; G 2.62; N 2.51; H 2.44; P 3.26; L 2.1; F 1.62; V 2.04; Q 3.12; C 2.07; M 1.84; E 3.02; A 2.76
Q21: S 2.74; T 2.42; R 2.62; A 2.88; E 3.22; W 1.82; Y 1.51; D 3.06; V 1.11; F 2.21; H 2.79; K 2.66; C 1.75; P 2.49; G 2.27; I 1.65; L 1.7; N 2.26
Y13: T 2.92; E 3.29; Q 3.01; S 4.05; I 3.12; K 2.92; M 2.57; H 2.42; L 2.15; F 1.93; A 2.9; W 1.88; N 3.57; D 3.26; C 3; P 2.75; V 2.33; G 3.08
P16: L 1.57; G 1.96; H 2.17; T 1.82; N 2.81; Y 1.89; F 2.79; S 2.16; K 1.91; D 2.46; M 2.13; C 2.29; E 2.96; I 3.9; Q 2.35; R 2.12; A 2.3
T22: Q 3.04; R 2.85; L 1.96; K 2.32; I 2.39; M 2.48; E 3.46; D 3.02; A 2.13; P 3.18; H 2.63; N 2.98; C 2.24; F 2.09; G 3.65
D12: K 2.31; H 2.54; W 2.08; V 1.59; T 2.91; R 3; A 2.21; E 2.43; I 1.81; Y 1.82; N 2.76; F 1.98; L 2.43; Q 2.72; G 2.11; S 2.68; C 1.98; M 2.59
V8: P 2.51; Q 2.63; G 2.76; L 2.37; R 2.25; H 2.92; K 2.98; D 3.27; C 1.49; F 2.18; S 2.6; E 3.29; W 2.5; I 2.58; T 2.83; Y 1.74; N 2.41; A 2.59; M 2.87
T10: H 2.36; I 1.3; Y 1.72; C 2.18; D 2.16; P 2.48; L 1.96; E 2.89; R 2.86; W 1.72; F 1.73; A 2.88; S 1.42; N 2.05; G 3.01; Q 3.41; M 2.61; V 2.27; K 2.17
G9: M 2.59; Q 2.77; F 2.27; W 1.89; P 2.6; V 1.98; L 3.14; K 2.24; E 2.71; T 2.7; A 2.63; C 1.97; R 2.65; Y 2.9; H 2.42; N 2.62; S 2.37; I 2.17; D 3.15
M20: A 2.78; D 3.97; P 3.25; E 2.65; V 3.1; N 2.87; H 2.25; T 2.85; G 2.53; S 3; I 2.14; R 2.43; F 2.06; L 2.89; W 1.95; Q 4.34; Y 2.89; C 2.63; K 2.76
I14: D 2.81; A 3.13; G 2.65; Q 2.66; C 2.28; H 2.57; K 3.11; E 2.92; P 2.39; T 2.69; N 2.95; W 1.95; L 2.92; V 2.54; Y 2.28; S 3.12; M 2.4; F 1.57
